Experimental data published in paper PMC2698047.
Like-named read-outs stand apart in the source and are kept apart here.

What was measured:
Assay in all cases: competition
[1] = target: T1, TP0262 (TpCRP, CRP homolog) (Treponema pallidum subsp. pallidum, UniProt O83286 1-224)
T1 sequence: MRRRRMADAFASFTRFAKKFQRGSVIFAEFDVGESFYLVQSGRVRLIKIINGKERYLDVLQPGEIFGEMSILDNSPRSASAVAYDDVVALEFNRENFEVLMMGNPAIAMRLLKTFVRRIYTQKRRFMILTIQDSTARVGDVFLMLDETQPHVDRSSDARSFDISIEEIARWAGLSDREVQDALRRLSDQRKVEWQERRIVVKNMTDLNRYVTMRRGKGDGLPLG

[2] = target: T1, TP0262 (TpCRP, CRP homolog); remark: listed apart in the source
[3] = target: T1, TP0262 (TpCRP, CRP homolog); remark: listed apart in the source
E. coli CRP = E. coli CRP (Escherichia coli K12 MG1655, UniProt P0ACJ8 1-210)
Chain of E. coli CRP (P0ACJ8 whole entry): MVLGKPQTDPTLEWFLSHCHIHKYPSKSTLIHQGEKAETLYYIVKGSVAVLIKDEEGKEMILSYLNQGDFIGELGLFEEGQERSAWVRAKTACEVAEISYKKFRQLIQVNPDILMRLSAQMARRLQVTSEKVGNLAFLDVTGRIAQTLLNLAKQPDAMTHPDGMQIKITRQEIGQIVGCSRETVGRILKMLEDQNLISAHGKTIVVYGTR

B1: tprE competitor oligo (dsDNA)
DNA 1: TGCGTGTGTGTGTGGGCTCGTGCTG
DNA 2: CAGCACGAGCCCACACACACACGCA
[1]
  binding result: binds

B2: tprJ competitor oligo (dsDNA)
DNA 1: GTTGTCAGTGCACGAGGAGGAG
DNA 2: CTCCTCCTCGTGCACTGACAAC
[2]
  binding result: binds

B3: tprG competitor oligo (dsDNA)
DNA 1: GTCAGTGCTAGCAGTCACATAC
DNA 2: GTATGTGACTGCTAGCACTGAC
[3]
  binding result: binds

B4: lac competitor oligo (E. coli CRP site) (dsDNA)
DNA 1: AAATGTGATCTAGATCACATTT
DNA 2: AAATGTGATCTAGATCACATTT
E. coli CRP
  binding result: binds
